Reference: patent US20130274692A1, “SUBCONJUCTIVAL IMPLANT FOR POSTERIOR SEGMENT DRUG DELIVERY” (priority 2010, published 2013)
Converted amounts (≈) assume the structure as drawn. Read-outs that look alike come from different tables or passages of the source.

What was measured:
[1] = Solubility of triamcinolone acetonide; assay type: physicochemical; details: saline or isotonic; 37 C in 0.2 M potassium chloride
Method: Consider a device with 10 uL reservoir volume loaded with 0.4 mg using a commercial drug product (40 mg/mL triamcinolone acetonide). […] The target release rate is 1 ug/day based upon published clinical data. As an example, consider the 0.2 media grade stainless steel characterized in Example 8 with P/F=0.12 and a thickness of 0.5 mm. […] This could be achieved with a cylindrical device having an inner diameter of 2 mm and a length of porous tubing of 1 mm. Alternatively, the end of the device could be a porous cup with height of 0.8 mm (0.5 mm thick porous face plus 0.3 mm length) of porous tubing.

[2] = cited from earlier work
[3] = human eye (Lucentis package insert); listed as ranibizumab; cited from earlier work
[4] = tested on: laser photocoagulation treatment-induced Grade IV choroidal neovascularization (CNV) lesions; details: intravitreal injection, all doses tested; cited from earlier work

solubility [1] | Compound | Half-life ([2]; monkey model (Gaudreault et al.), parameter of Simulations 1-5) | half-life in the vitreous ([2]; rabbit and monkey, listed as ranibizumab) | half-life in the vitreous [3] | development of Grade IV CNV lesions [4]
19 µg/mL (≈ 43.7 µM) | CC1(C)O[C@@H]2C[C@H]3[C@@H]4CCC5=CC(=O)C=C[C@]5(C)[C@@]4(F)[C@@H](O)C[C@]3(C)[C@]2(C(=O)CO)O1 [triamcinolone acetonide] | – | – | – | –
– | ranibizumab [Lucentis] | 63.1 h | approximately 3 days | ~220 h | completely inhibited
